Numbering of substitutions follows the chain as printed. Names may count otherwise.
B1: cTPI-C218S (enzyme, Arabidopsis thaliana, UniProt P48491 1-254, looked up)
chain: MARKFFVGGNWKCNGTAEEVKKIVNTLNEAQVPSQDVVEVVVSPPYVFLPLVKSTLRSDFFVAAQNCWVKKGGAFTGEVSAEMLVNLDIPWVILGHSERRAILNESSEFVGDKVAYALAQGLKVIACVGETLEEREAGSTMDVVAAQTKAIADRVTNWSNVVIAYEPVWAIGTGKVASPAQAQEVHDELRKWLAKNVSADVAATTRIIYGGSVNGGNSKELGGQADVDGFLVGGASLKPEFIDIIKAAEVKKSA
notes: cytoplasmic triosephosphate isomerase, Arabidopsis thaliana, At3g55440, point mutant; Made by site-directed mutagenesis of the cTPI construct; source: E. coli BL21 (DE3) Δtpi, purified (IMAC His-Trap FF, Superdex 75)
B2: cTPI-C13S (enzyme, Arabidopsis thaliana, UniProt P48491 1-254, looked up)
chain: B1 chain with C13S, S218C
notes: as for B1
B3: cTPI-C13S/C218S (enzyme, Arabidopsis thaliana, UniProt P48491 1-254, looked up)
chain: B1 chain with C13S
notes: cytoplasmic triosephosphate isomerase, Arabidopsis thaliana, At3g55440, double mutant; Made by site-directed mutagenesis of the cTPI construct; also called cTPI double mutant; source: E. coli BL21 (DE3) Δtpi, purified (IMAC His-Trap FF, Superdex 75)

Molecular target: the molecule itself
Experiment: SEC; analytical size-exclusion chromatography, Superdex 75 10/300GL, calibrated with Bio-Rad gel filtration standard, 0.5 mL/min, 100 mM TEA pH 7.4, 10 mM EDTA, 1 mM DTT; dimer of identical subunits

Protein	binding result	stoichiometry N
B1	binds	–
B2	–	2
B3	–	2
